Test results reported in US20040048327.

How the values were obtained:
Ac-AHph-trans-EP-COOEt = target: T1, Ac-AHph-trans-EP-COOEt
T1 chain: X

[1] = target: T2, Ac-Leu-AHph-trans-EP-COOEt
T2 chain: LX

[2] = target: T3, Ac-Leu-ALeu-trans-EP-COOEt
T3 chain: LL

[3] = target: T4, Boc-Abu-AHph-trans-EP-CH2CH2Ph
T4 chain: XX

[4] = target: T5, Boc-Nle-AHph-trans-EP-CH2CH2Ph
T5 chain: XX

[5] = target: T6, Boc-Nle-AHph-trans-EP-COOEt
T6 chain: XX

[6] = target: T7, Boc-Np2-ALeu-trans-EP-COOEt
T7 chain: XL

[7] = target: T8, Boc-Nva-AHph-trans-EP-COOEt
T8 chain: XX

Cbz-AHph-trans-EP-COOEt = target: T9, Cbz-AHph-trans-EP-COOEt
T9 chain: X

Cbz-ALeu-trans-EP-COOEt = target: T10, Cbz-ALeu-trans-EP-COOEt
T10 chain: L

[8] = target: T11, Cbz-APhe-trans-EP-CH2CH2Ph
T11 chain: F

Cbz-APhe-trans-EP-COOEt = target: T12, Cbz-APhe-trans-EP-COOEt
T12 chain: F

[9] = target: T13, Cbz-Ala-Ala-AAsn-(2R, 3R)-EP-COOEt
T13 chain: AAN

[10] = target: T14, Cbz-Ala-Ala-AAsn-(2S, 3S)-EP-COOEt
T14 chain: AAN

[11] = target: T15, Cbz-Ala-Ala-AAsn-cis-EP-COOEt
T15 chain: AAN

[12] = target: T16, Cbz-Ala-Ala-AAsn-trans-EP-COOEt
T16 chain: AAN

[13] = target: T17, Cbz-Ala-Ala-NHN(CH2COOEt)-trans-EP-COOEt
T17 chain: AAD

[14] = target: T18, Cbz-Asp-Glu-Val-AAsp-(2R, 3R)-EP-COOEt (not fully specified)
T18 chain: DEVD

[15] = target: T19, Cbz-Asp-Glu-Val-AAsp-(2S, 3S)-EP-COOEt (not fully specified)
T19 chain: DEVD

[16] = target: T20, Cbz-Leu-AAbu-trans-EP-COOEt
T20 chain: LX

[17] = target: T21, Cbz-Leu-AAbu-trans-EP-COOH
T21 chain: LX

[18] = target: T22, Cbz-Leu-AHph-(2R, 3R)-EP-COOEt
T22 chain: LX

[19] = target: T23, Cbz-Leu-AHph-(2S, 3S)-EP-COOEt
T23 chain: LX

[20] = target: T24, Cbz-Leu-AHph-cis-EP-COOEt
T24 chain: LX

[21] = target: T25, Cbz-Leu-ALeu-(2R, 3R)-EP-COOEt
T25 chain: LL

[22] = target: T26, Cbz-Leu-ALeu-(2S, 3S)-EP-COOEt
T26 chain: LL

[23] = target: T27, Cbz-Leu-ALeu-cis-EP-COOEt
T27 chain: LL

[24] = target: T28, Cbz-Leu-ALeu-trans-EP-COOEt
T28 chain: LL

[25] = target: T29, Cbz-Leu-Glu-Thr-AAsp-(2R, 3R)-EP-COOEt
T29 chain: LETD

[26] = target: T30, Cbz-Leu-Glu-Thr-AAsp-(2S, 3S)-EP-COOEt
T30 chain: LETD

[27] = target: T31, Cbz-Leu-Leu-ALeu-(2R, 3R)-EP-COOEt
T31 chain: LLL

[28] = target: T32, Cbz-Leu-Leu-ALeu-(2S, 3S)-EP-COOEt
T32 chain: LLL

[29] = target: T33, Cbz-Leu-Leu-ALeu-(2S, 3S)-EP-COOH
T33 chain: LLL

[30] = target: T34, Cbz-Leu-Leu-ALeu-trans-EP-COOEt
T34 chain: LLL

[31] = target: T35, Cbz-Leu-Phe-AGln-trans-EP-COOEt
T35 chain: LFQ

[32] = target: T36, Cbz-Phe-ALeu-trans-EP-CH2CH2Ph
T36 chain: FL

[33] = target: T37, Cbz-Phe-ALeu-trans-EP-COOEt
T37 chain: FL

[34] = target: T38, Cbz-Phe-APhe-trans-EP-CH2CH2Ph
T38 chain: FF

[35] = target: T39, PhPr-Val-Ala-AAsp-trans-EP-CH2CH2Ph
T39 chain: VAD

[36] = target: T40, PhPr-Val-Ala-AAsp-trans-EP-COOCH2Ph
T40 chain: VAD

[37] = target: T41, Suc-Np2-ALeu-trans-EP-COOEt
T41 chain: XL

B1: papain (protein)
chain: IPEYVDWRQKGAVTPVKNQGSCGSCWAFSAVVTIEGIIKIRTGNLNEYSEQELLDCDRRSYGCNGGYPWSALQLVAQYGIHYRNTYPYEGVQRYCRSREKGPYAAKTDGVRQVQPYNEGALLYSIANQPVSVVLEAAGKDFQLYRGGIFVGPCGNKVDHAVAAVGYGPNYILIKNSWGTGWGENGYIRIKRGTGNSYGVCGLYTSSFYPVKN
Question: For B1, which kobs/[I] (Ac-AHph-trans-EP-COOEt) is on record?
Answer: 26.9 M⁻¹ s⁻¹

Question: And the kobs/[I] [1]?
Answer: 1.9 M⁻¹ s⁻¹

Question: What about the kobs/[I] [2] of the same protein?
Answer: 2.09 M⁻¹ s⁻¹

Question: And the kobs/[I] [3]?
Answer: 0.2 M⁻¹ s⁻¹

Question: And the kobs/[I] [4]?
Answer: 0.5 M⁻¹ s⁻¹

Question: What about the kobs/[I] [5] of the same protein?
Answer: 1.6 M⁻¹ s⁻¹

Question: And the kobs/[I] [6]?
Answer: 3.9 M⁻¹ s⁻¹

Question: And the kobs/[I] [7]?
Answer: 1.4 M⁻¹ s⁻¹

Question: What about the kobs/[I] (Cbz-AHph-trans-EP-COOEt) of the same protein?
Answer: 18.8 M⁻¹ s⁻¹

Question: What about the kobs/[I] (Cbz-ALeu-trans-EP-COOEt) of the same protein?
Answer: 16.1 M⁻¹ s⁻¹

Question: What about the kobs/[I] [8] of the same protein?
Answer: 0.92 M⁻¹ s⁻¹

Question: And the kobs/[I] (Cbz-APhe-trans-EP-COOEt)?
Answer: 8.5 M⁻¹ s⁻¹

Question: And the kobs/[I] [9]?
Answer: 3 M⁻¹ s⁻¹

Question: And the kobs/[I] [10]?
Answer: 4 M⁻¹ s⁻¹

Question: What about the “kobs/[I]” value [11] of the same protein?
Answer: NI

Question: What about the kobs/[I] [12] of the same protein?
Answer: 0.9 M⁻¹ s⁻¹

Question: What about the kobs/[I] [13] of the same protein?
Answer: 8.17 M⁻¹ s⁻¹

Question: And the “kobs/[I]” value [14]?
Answer: NI

Question: What about the “kobs/[I]” value [15] of the same protein?
Answer: NI

Question: And the kobs/[I] [16]?
Answer: 4.94 M⁻¹ s⁻¹

Question: What about the kobs/[I] [17] of the same protein?
Answer: 1.47 M⁻¹ s⁻¹

Question: And the kobs/[I] [18]?
Answer: 2.16 M⁻¹ s⁻¹

Question: And the kobs/[I] [19]?
Answer: 5.68 M⁻¹ s⁻¹

Question: And the kobs/[I] [20]?
Answer: 1.03 M⁻¹ s⁻¹

Question: And the kobs/[I] [21]?
Answer: 6.7 M⁻¹ s⁻¹

Question: And the kobs/[I] [22]?
Answer: 10.5 M⁻¹ s⁻¹

Question: And the kobs/[I] [23]?
Answer: 0.38 M⁻¹ s⁻¹

Question: What about the kobs/[I] [24] of the same protein?
Answer: 6.37 M⁻¹ s⁻¹

Question: And the kobs/[I] [25]?
Answer: 0.24 M⁻¹ s⁻¹

Question: And the kobs/[I] [26]?
Answer: 0.47 M⁻¹ s⁻¹

Question: What about the kobs/[I] [27] of the same protein?
Answer: 20.6 M⁻¹ s⁻¹

Question: And the kobs/[I] [28]?
Answer: 10.5 M⁻¹ s⁻¹

Question: What about the kobs/[I] [29] of the same protein?
Answer: 6.93 M⁻¹ s⁻¹

Question: And the kobs/[I] [30]?
Answer: 34.8 M⁻¹ s⁻¹

Question: And the kobs/[I] [31]?
Answer: 0.9 M⁻¹ s⁻¹

Question: What about the kobs/[I] [32] of the same protein?
Answer: 0.7 M⁻¹ s⁻¹

Question: What about the kobs/[I] [33] of the same protein?
Answer: 0.91 M⁻¹ s⁻¹

Question: And the kobs/[I] [34]?
Answer: 0.5 M⁻¹ s⁻¹

Question: What about the “kobs/[I]” value [35] of the same protein?
Answer: NI

Question: And the kobs/[I] [36]?
Answer: < 10 M⁻¹ s⁻¹

Question: What about the kobs/[I] [37] of the same protein?
Answer: 1.39 M⁻¹ s⁻¹
